In paper PMC10199020:

Target: NL-IL23R co-expressed with IL12Rβ1 (IL-23 receptor on cells) (UniProt Q5VWK5)
Experiment: FRET or BRET; NanoBRET competition on living transfected HEK293T cells; 300 pM IL23-TMR displaced by unlabelled antagonist (concentration series or a single concentration); 1 h at 37 °C in HBSS with 1 mg/mL BSA

Sequence of NL-IL23R co-expressed with IL12Rβ1 (IL-23 receptor on cells) (Q5VWK5 24-629, chain 1 of 2, other chains not shown): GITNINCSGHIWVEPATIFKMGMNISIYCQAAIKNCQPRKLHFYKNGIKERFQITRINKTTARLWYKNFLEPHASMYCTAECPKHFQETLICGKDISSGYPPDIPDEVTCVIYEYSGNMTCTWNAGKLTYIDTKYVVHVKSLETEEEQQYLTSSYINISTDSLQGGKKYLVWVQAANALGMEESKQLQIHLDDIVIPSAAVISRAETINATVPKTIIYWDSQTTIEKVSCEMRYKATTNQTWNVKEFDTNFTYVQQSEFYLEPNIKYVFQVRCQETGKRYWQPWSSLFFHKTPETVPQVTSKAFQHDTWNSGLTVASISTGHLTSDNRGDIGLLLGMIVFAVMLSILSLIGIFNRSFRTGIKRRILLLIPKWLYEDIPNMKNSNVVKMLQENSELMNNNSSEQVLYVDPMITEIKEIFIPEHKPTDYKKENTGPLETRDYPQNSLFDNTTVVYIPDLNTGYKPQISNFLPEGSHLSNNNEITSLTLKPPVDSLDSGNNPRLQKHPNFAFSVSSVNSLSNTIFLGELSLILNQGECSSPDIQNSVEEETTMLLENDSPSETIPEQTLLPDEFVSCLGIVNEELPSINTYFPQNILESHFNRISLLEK

Ki: 0.469 nM
Substance: IL12p80 (from UniProt P29460 23-328) (ligand)
